Reference: the supplement of paper PMC7877785
± gives the uncertainty stated by the source.

Test: self-splicing fitness, log relative to wild type (ln ratio); higher = more splicing; Tetrahymena group I intron in knt gene, E. coli kanamycin selection, DiMSum; sequences stand for … in CUCUCU…GGAGGGAAAAGUUAUCAGGCAUGCACCUGGUAGCUAGUCUUUAAACCAAUAGAUUGCAUCGGUUUAAAAGGCAAGACCGUCAAAUUGCGGGAAAGGGGUCAACAGCCGUUCAGUACCAAGUCUCAGGGGAAACUUUGAGAUGGCCUUGCAAAGGGUAUGGUAAUAAGCUGACGGACAUGGUCCUAACCACGCAGCCAAGUCCUAAGUCAACAGAUCUUCUGUUGAUAUGGAUGCAGUUCACAGACUAAAUGUCGGUCGGGGAAGAUGUAUUCUUCUCAUAAGAUAUAGUCGGACCUCUCCUUAAUGGGAGCUAGCGGAUGAAGUGAUGCAACACUGGAGCCGCUGGGAACUAAUUUGUAUGCGAAAGUAUAUUGAUUAGUUUUGGAGUACUCGUGGUCG
Procedure, shortened: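 Pooled colonies went to amplicon sequencing on an Illumina HiSeq 2500 after six replicate transformations. The plates were LB agar with 100 μg/mL carbenicillin, 50 μM IPTG and 0.2% rhamnose, with or without 25 μg/mL kanamycin, incubated overnight at 37°C or 30°C. The E. coli BL21(DE3) library had all eight P1ex-region intron nucleotides randomised, the intron placed in the knt kanamycin-resistance gene on pET-22b(+). DiMSum fitness is the error-weighted combination of replicate fold changes, kanamycin against none, normalised to wild type.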

Row | Sequence | self-splicing fitness (ln) (30 °C) | self-splicing fitness (ln) (37 °C)
1 | AUACAGCAAUAUUACGCGGG | -3.46 ± 0.15 | -1.75 ± 0.11
2 | AUACAGCAAUAUUACGCGUC | -3.72 ± 0.14 | -2.6 ± 0.13
3 | AUACAGCAAUAUUACGGGAA | -2.72 ± 0.17 | -1.51 ± 0.13
4 | AUACAGCAAUAUUACGGGCU | -2.77 ± 0.11 | -1.29 ± 0.12
5 | AUACAGCAAUAUUACGUACA | -0.262 ± 0.081 | -0.215 ± 0.11
6 | AUACAGCAAUAUUACGUAUG | -2.42 ± 0.16 | -2.52 ± 0.18
7 | AUACAGCAAUAUUACGUCGU | -1.3 ± 0.07 | -0.0346 ± 0.077
8 | AUACAGCAAUAUUACGUUUA | -1.73 ± 0.078 | -1.07 ± 0.084
9 | AUAGAGCAAUAUUACGACCA | -2.34 ± 0.18 | -1.49 ± 0.27
10 | AUAGAGCAAUAUUACGACGG | -2.52 ± 0.18 | -0.742 ± 0.26
11 | AUAGAGCAAUAUUACGAUAA | -1.23 ± 0.16 | -0.812 ± 0.23
12 | AUAGAGCAAUAUUACGCACU | -0.797 ± 0.14 | 0.815 ± 0.14
13 | AUAGAGCAAUAUUACGCAUA | -0.926 ± 0.16 | -0.513 ± 0.26
14 | AUAGAGCAAUAUUACGCCAA | -2.44 ± 0.24 | -0.839 ± 0.3
15 | AUAGAGCAAUAUUACGCGAA | -1.34 ± 0.093 | -1.1 ± 0.11
16 | AUAGAGCAAUAUUACGCGCC | -1.86 ± 0.32 | -0.949 ± 0.28
17 | AUAGAGCAAUAUUACGCGGG | -2.17 ± 0.12 | -2.33 ± 0.16
18 | AUAGAGCAAUAUUACGCGUG | -0.385 ± 0.11 | -1.09 ± 0.13
19 | AUAGAGCAAUAUUACGCUAU | -2.49 ± 0.18 | -2.34 ± 0.3
20 | AUAGAGCAAUAUUACGGCAC | -1.75 ± 0.14 | -0.686 ± 0.2
21 | AUAGAGCAAUAUUACGGGAA | -3.43 ± 0.26 | -2.46 ± 0.25
22 | AUAGAGCAAUAUUACGGUGC | -1.96 ± 0.15 | -2.21 ± 0.46
23 | AUAGAGCAAUAUUACGUAAU | -0.582 ± 0.1 | 0.244 ± 0.12
24 | AUAGAGCAAUAUUACGUAUU | -2.46 ± 0.16 | -1.1 ± 0.17
25 | AUAGAGCAAUAUUACGUCCC | -2.36 ± 0.48 | –

Row | Sequence | self-splicing fitness (ln) (30 °C) | self-splicing fitness (ln) (37 °C)
26 | AUAGAGCAAUAUUACGUUAG | -1.39 ± 0.11 | -1.21 ± 0.16
27 | AUAGAGCAAUAUUACGUUCC | -2.27 ± 0.22 | -1.53 ± 0.23
28 | AUAUAGCAAUAUUACGACUG | -1.47 ± 0.14 | -1.65 ± 0.21
29 | AUAUAGCAAUAUUACGAGGG | -2.57 ± 0.43 | –
30 | AUAUAGCAAUAUUACGAGUA | -2.18 ± 0.2 | -1.04 ± 0.16
31 | AUAUAGCAAUAUUACGAGUG | -2.78 ± 0.19 | -1.8 ± 0.2
32 | AUAUAGCAAUAUUACGAUCG | -1.94 ± 0.12 | -0.815 ± 0.14
33 | AUAUAGCAAUAUUACGAUUA | -0.958 ± 0.23 | -0.617 ± 0.2
34 | AUAUAGCAAUAUUACGCAAG | -2.34 ± 0.22 | -0.955 ± 0.21
35 | AUAUAGCAAUAUUACGCUCU | -0.66 ± 0.18 | -0.594 ± 0.18
36 | AUAUAGCAAUAUUACGCUUU | -2.12 ± 0.41 | -1.34 ± 0.31
37 | AUAUAGCAAUAUUACGGAAC | -2.89 ± 0.41 | –
38 | AUAUAGCAAUAUUACGGAGU | -2.29 ± 0.13 | -1.82 ± 0.2
39 | AUAUAGCAAUAUUACGGCCC | -0.72 ± 0.15 | -0.205 ± 0.24
40 | AUAUAGCAAUAUUACGGUGA | -1.72 ± 0.2 | -1.11 ± 0.2
41 | AUAUAGCAAUAUUACGUCUG | -2.35 ± 0.1 | -0.0249 ± 0.12
42 | AUAUAGCAAUAUUACGUGCA | -1.57 ± 0.16 | 0.00562 ± 0.16
43 | AUAUAGCAAUAUUACGUGCC | -1.82 ± 0.38 | -1.01 ± 0.41
44 | AUAUAGCAAUAUUACGUUGU | -3.79 ± 0.29 | –
45 | AUAUAGCAAUAUUACGUUUA | -2.02 ± 0.25 | -1.63 ± 0.2
46 | AUCAAGCAAUAUUACGAAAC | -3.16 ± 0.2 | -3.17 ± 0.28
47 | AUCAAGCAAUAUUACGACAA | -1 ± 0.12 | -0.427 ± 0.12
48 | AUCAAGCAAUAUUACGACAG | -3.07 ± 0.17 | -1.7 ± 0.18
49 | AUCAAGCAAUAUUACGCACC | -0.849 ± 0.26 | -0.581 ± 0.31
50 | AUCAAGCAAUAUUACGCGAC | -2.01 ± 0.23 | -1.58 ± 0.22

Row | Sequence | self-splicing fitness (ln) (30 °C) | self-splicing fitness (ln) (37 °C)
51 | AUCAAGCAAUAUUACGCGGG | -2.86 ± 0.14 | -1.04 ± 0.12
52 | AUCAAGCAAUAUUACGCGGU | -4.07 ± 0.19 | -2.03 ± 0.16
53 | AUCAAGCAAUAUUACGCUCA | 0.0216 ± 0.073 | 0.342 ± 0.096
54 | AUCAAGCAAUAUUACGGAUA | -2.42 ± 0.16 | -1.83 ± 0.15
55 | AUCAAGCAAUAUUACGGGAA | -1.87 ± 0.13 | -0.563 ± 0.12
56 | AUCAAGCAAUAUUACGGGCU | -1.86 ± 0.079 | -0.884 ± 0.087
57 | AUCAAGCAAUAUUACGUAUC | -4.11 ± 0.21 | -2.76 ± 0.34
58 | AUCAAGCAAUAUUACGUUCC | -2.85 ± 0.13 | -0.598 ± 0.17
59 | AUCCAGCAAUAUUACGAAGC | -2.53 ± 0.16 | -2.28 ± 0.23
60 | AUCCAGCAAUAUUACGAGCA | -1.14 ± 0.14 | -1.1 ± 0.11
61 | AUCCAGCAAUAUUACGAGGC | -1.97 ± 0.16 | -1.41 ± 0.23
62 | AUCCAGCAAUAUUACGCACA | -0.451 ± 0.098 | 0.366 ± 0.1
63 | AUCCAGCAAUAUUACGCAGC | -1.43 ± 0.13 | -1.26 ± 0.2
64 | AUCCAGCAAUAUUACGCCAA | -2.78 ± 0.22 | -1.71 ± 0.18
65 | AUCCAGCAAUAUUACGCCCA | -0.76 ± 0.14 | -0.212 ± 0.15
66 | AUCCAGCAAUAUUACGCGAA | -0.821 ± 0.054 | -0.468 ± 0.07
67 | AUCCAGCAAUAUUACGCGAG | -0.838 ± 0.065 | -0.241 ± 0.078
68 | AUCCAGCAAUAUUACGCGCG | -2 ± 0.074 | -0.8 ± 0.1
69 | AUCCAGCAAUAUUACGCUAA | -0.717 ± 0.093 | -1.13 ± 0.077
70 | AUCCAGCAAUAUUACGCUAC | -4.03 ± 0.3 | -1.95 ± 0.24
71 | AUCCAGCAAUAUUACGCUCU | 0.335 ± 0.14 | 0.709 ± 0.15
72 | AUCCAGCAAUAUUACGGACG | 0.0252 ± 0.082 | -0.0752 ± 0.089
73 | AUCCAGCAAUAUUACGGCGA | -1.02 ± 0.098 | -0.399 ± 0.13
74 | AUCCAGCAAUAUUACGGGAC | -4.17 ± 0.27 | -3.04 ± 0.2
75 | AUCCAGCAAUAUUACGGGCA | -0.0628 ± 0.073 | -0.507 ± 0.083

Row | Sequence | self-splicing fitness (ln) (30 °C) | self-splicing fitness (ln) (37 °C)
76 | AUCCAGCAAUAUUACGGUAA | -1.02 ± 0.076 | -0.567 ± 0.073
77 | AUCCAGCAAUAUUACGGUAU | -2.88 ± 0.13 | -1.19 ± 0.12
78 | AUCCAGCAAUAUUACGUUGG | -4.05 ± 0.18 | -2.97 ± 0.16
79 | AUCGAGCAAUAUUACGAGGU | -3.26 ± 0.3 | -2.93 ± 0.4
80 | AUCGAGCAAUAUUACGAUCG | -2.9 ± 0.22 | -3.06 ± 0.34
81 | AUCGAGCAAUAUUACGCAGU | -2.07 ± 0.23 | -1.85 ± 0.33
82 | AUCGAGCAAUAUUACGCCAC | – | -2.54 ± 0.45
83 | AUCGAGCAAUAUUACGCCCC | -2.24 ± 0.44 | –
84 | AUCGAGCAAUAUUACGCCGU | -2.52 ± 0.21 | -1.46 ± 0.31
85 | AUCGAGCAAUAUUACGCGGA | -2.55 ± 0.17 | -0.974 ± 0.11
86 | AUCGAGCAAUAUUACGCGUU | -2.01 ± 0.17 | -1.1 ± 0.17
87 | AUCGAGCAAUAUUACGGCAC | -3.16 ± 0.15 | -1.87 ± 0.16
88 | AUCGAGCAAUAUUACGGCGU | -0.0628 ± 0.11 | -0.183 ± 0.11
89 | AUCGAGCAAUAUUACGGUAC | – | -2.51 ± 0.41
90 | AUCGAGCAAUAUUACGGUAU | -2.46 ± 0.13 | -1.12 ± 0.11
91 | AUCGAGCAAUAUUACGUAGA | -3.09 ± 0.32 | -2.7 ± 0.38
92 | AUCGAGCAAUAUUACGUAUC | -2.86 ± 0.35 | -3.28 ± 0.37
93 | AUCGAGCAAUAUUACGUGCA | -2.85 ± 0.21 | -1.14 ± 0.13
94 | AUCUAGCAAUAUUACGAAGG | -3.42 ± 0.3 | -2.01 ± 0.32
95 | AUCUAGCAAUAUUACGAAUA | – | -0.668 ± 0.32
96 | AUCUAGCAAUAUUACGACAA | -1.76 ± 0.23 | 0.296 ± 0.19
97 | AUCUAGCAAUAUUACGACCU | -0.471 ± 0.11 | 0.729 ± 0.12
